Data as given in patent US20060073508A1.
Substitutions are numbered along the chain they refer to.

B1: polymorphic Lys251 human alpha-2A adrenergic receptor, P08913 16-465 (receptor)
chain: MGSLQPDAGNASWNGTEAPGGGARATPYSLQVTLTLVCLAGLLMLLTVFGNVLVIIAVFTSRALKAPQNLFLVSLASADILVATLVIPFSLANEVMGYWYFGKAWCEIYLALDVLFCTSSIVHLCAISLDRYWSITQAIEYNLKRTPRRIKAIIITVWVISAVISFPPLISIEKKGGGGGPQPAEPRCEINDQKWYVISSCIGSFFAPCLIMILVYVRIYQIAKRRTRVPPSRRGPDAVAAPPGGTERRPKGLGPERSAGPGGAEAEPLPTQLNGAPGEPAPAGPRDTDALDLEESSSSDHAERPPGPRRPERGPRGKGKARASQVKPGDSLPRRGPGATGIGTPAAGPGEERVGAAKASRWRGRQNREKRFTFVLAVVIGVFVVCWFPFFFTYTLTAVGCSVPRTLFKFFFWFGYCNSSLNPVIYTIFNHDFRRAFKKILCRGDRKRIV
B2: wild-type Asn251 human alpha-2A adrenergic receptor, P08913 16-465 (receptor)
chain: B1 chain with K251N
B3: wild-type human alpha-2C adrenergic receptor, P18825 1-462 (receptor)
chain: MASPALAAALAVAAAAGPNASGAGERGSGGVANASGASWGPPRGQYSAGAVAGLAAVVGFLIVFTVVGNVLVVIAVLTSRALRAPQNLFLVSLASADILVATLVMPFSLANELMAYWYFGQVWCGVYLALDVLFCTSSIVHLCAISLDRYWSVTQAVEYNLKRTPRRVKATIVAVWLISAVISFPPLVSLYRQPDGAAYPQCGLNDETWYILSSCIGSFFAPCLIMGLVYARIYRVAKRRTRTLSEKRAPVGPDGASPTTENGLGAAAGAGENGHCAPPPADVEPDESSAAAERRRRRGALRRGGRRRAGAEGGAGGADGQGAGPGAAESGALTASRSPGPGGRLSRASSRSVEFFLSRRRRARSSVCRRKVAQAREKRFTFVLAVVMGVFVLCWFPFFFIYSLYGICREACQVPGPLFKFFFWIGYCNSSLNPVIYTVFNQDFRPSFKHILFRRRRRGFRQ
B4: Del322-325 human alpha-2C adrenergic receptor, P18825 1-462 (receptor)
chain: MASPALAAALAVAAAAGPNASGAGERGSGGVANASGASWGPPRGQYSAGAVAGLAAVVGFLIVFTVVGNVLVVIAVLTSRALRAPQNLFLVSLASADILVATLVMPFSLANELMAYWYFGQVWCGVYLALDVLFCTSSIVHLCAISLDRYWSVTQAVEYNLKRTPRRVKATIVAVWLISAVISFPPLVSLYRQPDGAAYPQCGLNDETWYILSSCIGSFFAPCLIMGLVYARIYRVAKRRTRTLSEKRAPVGPDGASPTTENGLGAAAGAGENGHCAPPPADVEPDESSAAAERRRRRGALRRGGRRRAGAEGGAGGADGQGAAESGALTASRSPGPGGRLSRASSRSVEFFLSRRRRARSSVCRRKVAQAREKRFTFVLAVVMGVFVLCWFPFFFIYSLYGICREACQVPGPLFKFFFWIGYCNSSLNPVIYTVFNQDFRPSFKHILFRRRRRGFRQ

Legend:
[1] = molecular target: Gi (endogenous G protein of the CHO cells); test: cell-based or functional assay
[2] = molecular target: Gi/Go (endogenous G proteins of the CHO cells); test: cell-based or functional assay

Binder | inhibition of adenylyl cyclase [1] [% inhibition] | stimulation of MAP kinase (fold increase over basal) [1] | high affinity dissociation constant KH of epinephrine (competition with [3H]yohimbine, no GTP) [2] [nM] | percentage of receptors in the high-affinity state (% RH) [2] [%] | inhibition of adenylyl cyclase (epinephrine) [1] [% inhibition]
B1 | 60 | 57 |  |  | 
B2 | 46 | 15 |  |  | 
B3 |  |  | 3.7 | 42 | 73
B4 |  |  | 7.3 | 31 | 10
